Reference: patent US20210363269A1 (ALX ONCOLOGY, published 2021)
Positions count from the first letter of the chain named. Names may count otherwise.

T1: mouse 129 SIRP-α D1 domain (mouse (129 strain), UniProt P97797 32-150)
T1 construct: also called m129
T1 chain: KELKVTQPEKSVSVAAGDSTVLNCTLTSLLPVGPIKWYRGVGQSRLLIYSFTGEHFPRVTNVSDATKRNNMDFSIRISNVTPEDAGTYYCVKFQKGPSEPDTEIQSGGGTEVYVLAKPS

T2: C57BL/6 mouse SIRP-α D1 domain (mouse (C57BL/6 strain), UniProt P97797 32-148)
T2 sequence: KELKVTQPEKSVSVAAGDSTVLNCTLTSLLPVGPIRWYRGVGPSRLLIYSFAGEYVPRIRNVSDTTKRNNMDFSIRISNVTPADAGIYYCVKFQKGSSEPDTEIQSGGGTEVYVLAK

T3: cynomolgus SIRP-α D1 domain (cyno2) (cynomolgus monkey, UniProt Q5TFQ8 30-148 (human entry), limits assumed)
T3 chain: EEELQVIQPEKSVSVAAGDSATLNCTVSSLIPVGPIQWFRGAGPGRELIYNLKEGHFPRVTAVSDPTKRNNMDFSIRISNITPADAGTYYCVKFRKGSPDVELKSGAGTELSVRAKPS

T4: cynomolgus SIRP-α D1 domain (cyno1) (cynomolgus monkey, UniProt Q5TFQ8 30-148 (human entry), limits assumed)
T4 chain: T3 chain with D19E, V27A, S28T, A42V, N51H, L52Q, A62P

T5: high affinity SIRP-α D1 variant CV1-3
T5 chain: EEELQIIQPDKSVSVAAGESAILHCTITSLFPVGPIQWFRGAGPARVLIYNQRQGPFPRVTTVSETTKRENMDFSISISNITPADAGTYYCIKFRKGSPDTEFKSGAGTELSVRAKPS

T6: cynomolgus SIRP-α D1 domain (SEQ ID NO:11) (cynomolgus, UniProt Q5TFQ8 30-148 (human entry), limits assumed)
T6 construct: also called cyno1
T6 chain: T3 chain with D19E, V27A, S28T, A42V, N51H, L52Q, A62P

B1: S149 (scFv, V domains shown)
VH: DVQLVESGGGVVRPGESLRLSCAASGFTFSNFAMNWVRQAPGEGLEWVSLISVTATTYYADSVKGRFTISRDNSKNTLYLQMNSLRAEDTAVYYCAKVTWNNLFDYWGLGTLVTVSS
VL: EIVLTQSPGTLSLSPGERATLSCRASQPIDSYLAWYQQKPGQAPRLLIYNTVTRATGIPDRFSGSGSGTDFTLTINRLEPEDFAVYYCQHQYDWPPYIFGGGTKVEIK
notes: scFv-Fc format (VL-linker-VH on human IgG1 Fc)
B2: S161 (scFv, V domains shown)
VH: B1 VH with N35T, E43K, L45P, I51V, N76S, V98I
VL: EIVLTQSPGTLSLSPGERATLSCRASQTVGSKLAWYQQKPGQAPRLLIYDSSSRASGIPDRFSGSGSGTDFTLTISSLQSEDSAVYYCQQHNDWPPYTFGGGTKVEIK
notes: as for B1
B3: S213 (scFv, V domains shown)
VH: DVQLVESGGGVVRPGESLRLSCEASGFTFRNYYMTWVRQAPGEGLEWVSTISDTGDTAYYADSVKGRFTISRDNSKNSLYLQMNSLRADDTAIYYCAKSWIWWTFFDYWGLGTLVTVSS
VL: ALTQPASVSANLGGTVEITCSGGNSNHYGWYQQKSPGSAPVTLIYADTNRPSNIPSRFSGSTSGSTTTLTITGVQAEDEAVYYCGGSSTGDGIFGAGTTLTVL
notes: also called clone 213
B4: S214 (scFv, V domains shown)
VH: B3 VH with G8E, Y32S, D89E
VL: B3 VL with T67S
B5: antibody 135 variant mut/mut (antibody, human IgG1, V domains shown)
VH: EVQLVESGGGVVQPGGSLRLSCAASGFSFSIYAVSWVRQAPGKGLEWVSTIGADDTYYADSVKGRFTISRDNSKNTLYLQMNSLRAEDTAVYYCAKDSTVGWSGDFFDYWGQGTLVTVSS
VL: EIVLTQSPATLSVSPGERVTLSCRASQNVRSDIAWYQQKPGQAPRLLIYAASSRDTGIPARFSGSGSGTDFTLTISSLQSEDFGVYYCQQYYDWPPFTFGGGTKVEIK
notes: Human IgG1 with L234A/L235A/G237A/N297A; Labels are in the order VL/VH

Assays:
[1] = molecular target: T1, mouse 129 SIRP-α D1 domain; assay: SPR
Method in brief: (§1)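 Dissociation rate constants (koff) were measured on a ProteOn XPR36 instrument by Langmuir model fitting. Antibody clones in scFv-Fc format were captured from pre-filtered culture media onto a GLC chip with about 4000 RU of amine-coupled anti-human IgG Fc. SIRP analytes ran in PBS pH 7.4 with 0.01% Tween-20 at 25° C, and the model used was 1:1, applied to data double-referenced against interspot and buffer-blank responses.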

[2] = molecular target: T7, human SIRPγ isoform 1 (human, UniProt Q9P1W8 29-147); assay: SPR
T7 construct: also called SIRPg; sirpg
Method in brief: as §1
T7 sequence (Q9P1W8 29-147 limits assumed): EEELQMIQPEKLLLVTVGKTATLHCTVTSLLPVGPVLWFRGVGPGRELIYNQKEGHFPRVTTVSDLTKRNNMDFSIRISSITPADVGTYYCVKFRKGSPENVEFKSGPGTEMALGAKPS

[3] = molecular target: T2, C57BL/6 mouse SIRP-α D1 domain; assay: SPR
Method in brief: as §1

[4] = molecular target: T8, human SIRPβ isoform 1 (human, UniProt O00241 30-148); assay: SPR, Langmuir fit
T8 construct: also called SIRPb; sirpb1
T8 sequence (O00241 30-148 limits assumed): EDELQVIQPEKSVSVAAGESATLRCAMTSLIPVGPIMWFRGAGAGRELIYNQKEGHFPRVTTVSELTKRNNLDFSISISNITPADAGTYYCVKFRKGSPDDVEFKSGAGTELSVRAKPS
Method in brief: as §1

[5] = molecular target: T9, human SIRP-α v1 D1 domain (human, UniProt P78324 31-149); assay: SPR, Langmuir fit
T9 construct: also called human v1
Method in brief: as §1
T9 sequence (P78324 31-149 limits assumed): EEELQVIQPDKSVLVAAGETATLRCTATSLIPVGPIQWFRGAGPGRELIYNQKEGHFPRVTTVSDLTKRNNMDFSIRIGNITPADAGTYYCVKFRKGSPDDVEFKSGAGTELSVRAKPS

[6] = molecular target: T3, cynomolgus SIRP-α D1 domain (cyno2); assay: SPR, Langmuir fit
Method in brief: as §1

[7] = molecular target: T10, human SIRP-α v2 D1 domain (human); assay: SPR, Langmuir fit
T10 construct: also called human v2
Method in brief: as §1

[8] = molecular target: T8, human SIRPβ isoform 1; assay: SPR
Method in brief: as §1

[9] = molecular target: T4, cynomolgus SIRP-α D1 domain (cyno1); assay: SPR, Langmuir fit
Method in brief: as §1

[10] = molecular target: T5, high affinity SIRP-α D1 variant CV1-3; assay: SPR, Langmuir fit
Method in brief: as §1

[11] = molecular target: T11, human SIRP-α v1 D1 domain (human, UniProt P78324 31-149); assay: SPR, antibody immobilised on GLC chip
T11 construct: also called human v1; human α v1
Method: (§2) All experiments were performed at 25° C. using a SPR-based ProteOn XPR36 biosensor (BioRad, Inc, Hercules, Calif.) equipped with GLC or NLC sensor chips. […] Purification was carried out by standard Protein A affinity column chromatography and eluted antibodies were stored in PBS buffer.
(§3) For the method using GLC chip, the analytes were injected and flowed over anti-SIRPα antibodies immobilized (˜1000 RUs) on GLC chips using Proteon™ Amine Coupling Kit. For the immobilization step, GLC chip was activated with EDAC/Sulpho-NHS 1:1 (Biorad) diluted 1/100 for 300 s at 25 μL/min. Anti-SIRPα antibodies were diluted to 80 nM concentration in 10 mM sodium acetate buffer pH 4.5 and immobilized to the chip at 30 μL/min for 50 s. Chip was inactivated with ethanolamine for 300 s at 25 μL/min. The analytes (e.g., SIRP-α from different species, SIRP-β, SIRP-γ) were injected in a “one-shot” kinetic mode at nominal concentrations of 100, 33, 11, 3.7, 1.2 and 0 nM. Association times were monitored for 90 s at 100 μL/min, and dissociation times were monitored for 1200 s. The surfaces were regenerated with a 2:1 v/v blend of Pierce IgG elution buffer/4M NaCl.
T11 sequence (P78324 31-149 limits assumed): as above

[12] = molecular target: T6, cynomolgus SIRP-α D1 domain (SEQ ID …); assay: SPR, antibody immobilised on GLC chip
Method: as §2, §3

[13] = molecular target: T12, human SIRPγ isoform 1 (human, UniProt Q9P1W8 29-147); assay: SPR, antibody immobilised on GLC chip
T12 construct: also called sirpg; sirp-g
Method: as §2, §3
T12 sequence (Q9P1W8 29-147 limits assumed): as the sequence (Q9P1W8 29-147 limits assumed) above

[14] = molecular target: T13, human SIRP-α v2 D1 domain (human); assay: SPR, antibody immobilised on GLC chip
T13 construct: also called human v2; human α v2
Method: as §2, §3
T13 sequence (chain, as listed by the source limits assumed): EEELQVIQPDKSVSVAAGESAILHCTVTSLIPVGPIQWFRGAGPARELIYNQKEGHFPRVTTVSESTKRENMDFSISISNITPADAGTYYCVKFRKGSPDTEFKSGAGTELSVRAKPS

Binder	binding result [1]	binding result [2]	binding result [3]	koff [4] [s⁻¹]	koff [5] [s⁻¹]	koff [6] [s⁻¹]	koff [7] [s⁻¹]	binding result [8]	koff [9] [s⁻¹]	koff [10] [s⁻¹]	Kd [11] [nM]	Kd [12] [nM]	Kd [13] [nM]	Kd [14] [nM]
B1	no binding (tested: Koff > 5 × 10^3 (legend))	no binding (tested: Koff > 5 × 10^3 (legend))	no binding (tested: Koff > 5 × 10^3 (legend))	0.000331	0.00415	0.00258	0.000544							
B2	no binding (tested: Koff > 5 × 10^3 (legend))	no binding (tested: Koff > 5 × 10^3 (legend))	no binding (tested: Koff > 5 × 10^3 (legend))	0.00321	0.00337	0.00215	0.000348							
B3			no binding (tested: Koff > 5 × 10^3 (legend))			0.00313	0.000685	no binding (tested: Koff > 5 × 10^3 (legend))	0.0026	0.00482				
B4			no binding (tested: Koff > 5 × 10^3 (legend))			0.00271	0.000677	no binding (tested: Koff > 5 × 10^3 (legend))	0.00351	0.00453				
B5											0.192	0.127	0.733	0.0175
